From patent publication US20210171613A1 (NATIONAL RESEARCH COUNCIL OF CANADA, published 2021)
Where a chain is given by its changes, count along the chain named. In names and notes the source's numbering stands.

B1: Parent A26.8 VHH (VHH, not shown: small tags and cut ends)
VHH: QVKLEESGGGLVQAGGSLRLSCAASERTFSRYPVAWFRQAPGAEREFVAVISSTGTSTYYADSVKGRFTISRDNAKVTVYLQMNNLKREDTAVYFCAVNSQRTRLQDPNEYDYWGQGTQVTVSS
B2: A26.8-T56R, T103R (VHH, not shown: small tags and cut ends)
VHH: B1 VHH with T56R, T103R
notes: also called lead double mutant; best double mutant
B3: A26.8-T56R, Q101K, T103R (VHH, not shown: small tags and cut ends)
VHH: B1 VHH with T56R, Q101K, T103R
notes: also called lead triple mutant; best triple mutant
B4: A26.8-T103W (VHH, not shown: small tags and cut ends)
VHH: B1 VHH with T103W
B5: A26.8 VHH mutant E110Q (VHH, not shown: small tags and cut ends)
VHH: B1 VHH with E110Q
B6: A26.8 VHH mutant D107R (VHH, not shown: small tags and cut ends)
VHH: B1 VHH with D107R
B7: A26.8-Q101K (VHH, not shown: small tags and cut ends)
VHH: B1 VHH with Q101K
B8: A26.8 VHH mutant D107N (VHH, not shown: small tags and cut ends)
VHH: B1 VHH with D107N
B9: A26.8 VHH mutant D107Y (VHH, not shown: small tags and cut ends)
VHH: B1 VHH with D107Y
B10: A26.8-T56R (VHH, not shown: small tags and cut ends)
VHH: B1 VHH with T56R
B11: A26.8-T103K (VHH, not shown: small tags and cut ends)
VHH: B1 VHH with T103K
B12: A26.8 VHH mutant R104W (VHH, not shown: small tags and cut ends)
VHH: B1 VHH with R104W
B13: A26.8-T103R (VHH, not shown: small tags and cut ends)
VHH: B1 VHH with T103R
B14: A26.8 VHH mutant S53R (VHH, not shown: small tags and cut ends)
VHH: B1 VHH with S53R
B15: A26.8 VHH mutant Q106F (VHH, not shown: small tags and cut ends)
VHH: B1 VHH with Q106F
B16: A26.8 VHH mutant Q106W (VHH, not shown: small tags and cut ends)
VHH: B1 VHH with Q106W
B17: A26.8 VHH mutant Q106Y (VHH, not shown: small tags and cut ends)
VHH: B1 VHH with Q106Y
B18: A26.8 VHH mutant Q106L (VHH, not shown: small tags and cut ends)
VHH: B1 VHH with Q106L

Biological target: T1, Clostridium difficile toxin A (TcdA) (Clostridium difficile, UniProt P16154 1-2710)
T1 sequence (P16154 whole entry): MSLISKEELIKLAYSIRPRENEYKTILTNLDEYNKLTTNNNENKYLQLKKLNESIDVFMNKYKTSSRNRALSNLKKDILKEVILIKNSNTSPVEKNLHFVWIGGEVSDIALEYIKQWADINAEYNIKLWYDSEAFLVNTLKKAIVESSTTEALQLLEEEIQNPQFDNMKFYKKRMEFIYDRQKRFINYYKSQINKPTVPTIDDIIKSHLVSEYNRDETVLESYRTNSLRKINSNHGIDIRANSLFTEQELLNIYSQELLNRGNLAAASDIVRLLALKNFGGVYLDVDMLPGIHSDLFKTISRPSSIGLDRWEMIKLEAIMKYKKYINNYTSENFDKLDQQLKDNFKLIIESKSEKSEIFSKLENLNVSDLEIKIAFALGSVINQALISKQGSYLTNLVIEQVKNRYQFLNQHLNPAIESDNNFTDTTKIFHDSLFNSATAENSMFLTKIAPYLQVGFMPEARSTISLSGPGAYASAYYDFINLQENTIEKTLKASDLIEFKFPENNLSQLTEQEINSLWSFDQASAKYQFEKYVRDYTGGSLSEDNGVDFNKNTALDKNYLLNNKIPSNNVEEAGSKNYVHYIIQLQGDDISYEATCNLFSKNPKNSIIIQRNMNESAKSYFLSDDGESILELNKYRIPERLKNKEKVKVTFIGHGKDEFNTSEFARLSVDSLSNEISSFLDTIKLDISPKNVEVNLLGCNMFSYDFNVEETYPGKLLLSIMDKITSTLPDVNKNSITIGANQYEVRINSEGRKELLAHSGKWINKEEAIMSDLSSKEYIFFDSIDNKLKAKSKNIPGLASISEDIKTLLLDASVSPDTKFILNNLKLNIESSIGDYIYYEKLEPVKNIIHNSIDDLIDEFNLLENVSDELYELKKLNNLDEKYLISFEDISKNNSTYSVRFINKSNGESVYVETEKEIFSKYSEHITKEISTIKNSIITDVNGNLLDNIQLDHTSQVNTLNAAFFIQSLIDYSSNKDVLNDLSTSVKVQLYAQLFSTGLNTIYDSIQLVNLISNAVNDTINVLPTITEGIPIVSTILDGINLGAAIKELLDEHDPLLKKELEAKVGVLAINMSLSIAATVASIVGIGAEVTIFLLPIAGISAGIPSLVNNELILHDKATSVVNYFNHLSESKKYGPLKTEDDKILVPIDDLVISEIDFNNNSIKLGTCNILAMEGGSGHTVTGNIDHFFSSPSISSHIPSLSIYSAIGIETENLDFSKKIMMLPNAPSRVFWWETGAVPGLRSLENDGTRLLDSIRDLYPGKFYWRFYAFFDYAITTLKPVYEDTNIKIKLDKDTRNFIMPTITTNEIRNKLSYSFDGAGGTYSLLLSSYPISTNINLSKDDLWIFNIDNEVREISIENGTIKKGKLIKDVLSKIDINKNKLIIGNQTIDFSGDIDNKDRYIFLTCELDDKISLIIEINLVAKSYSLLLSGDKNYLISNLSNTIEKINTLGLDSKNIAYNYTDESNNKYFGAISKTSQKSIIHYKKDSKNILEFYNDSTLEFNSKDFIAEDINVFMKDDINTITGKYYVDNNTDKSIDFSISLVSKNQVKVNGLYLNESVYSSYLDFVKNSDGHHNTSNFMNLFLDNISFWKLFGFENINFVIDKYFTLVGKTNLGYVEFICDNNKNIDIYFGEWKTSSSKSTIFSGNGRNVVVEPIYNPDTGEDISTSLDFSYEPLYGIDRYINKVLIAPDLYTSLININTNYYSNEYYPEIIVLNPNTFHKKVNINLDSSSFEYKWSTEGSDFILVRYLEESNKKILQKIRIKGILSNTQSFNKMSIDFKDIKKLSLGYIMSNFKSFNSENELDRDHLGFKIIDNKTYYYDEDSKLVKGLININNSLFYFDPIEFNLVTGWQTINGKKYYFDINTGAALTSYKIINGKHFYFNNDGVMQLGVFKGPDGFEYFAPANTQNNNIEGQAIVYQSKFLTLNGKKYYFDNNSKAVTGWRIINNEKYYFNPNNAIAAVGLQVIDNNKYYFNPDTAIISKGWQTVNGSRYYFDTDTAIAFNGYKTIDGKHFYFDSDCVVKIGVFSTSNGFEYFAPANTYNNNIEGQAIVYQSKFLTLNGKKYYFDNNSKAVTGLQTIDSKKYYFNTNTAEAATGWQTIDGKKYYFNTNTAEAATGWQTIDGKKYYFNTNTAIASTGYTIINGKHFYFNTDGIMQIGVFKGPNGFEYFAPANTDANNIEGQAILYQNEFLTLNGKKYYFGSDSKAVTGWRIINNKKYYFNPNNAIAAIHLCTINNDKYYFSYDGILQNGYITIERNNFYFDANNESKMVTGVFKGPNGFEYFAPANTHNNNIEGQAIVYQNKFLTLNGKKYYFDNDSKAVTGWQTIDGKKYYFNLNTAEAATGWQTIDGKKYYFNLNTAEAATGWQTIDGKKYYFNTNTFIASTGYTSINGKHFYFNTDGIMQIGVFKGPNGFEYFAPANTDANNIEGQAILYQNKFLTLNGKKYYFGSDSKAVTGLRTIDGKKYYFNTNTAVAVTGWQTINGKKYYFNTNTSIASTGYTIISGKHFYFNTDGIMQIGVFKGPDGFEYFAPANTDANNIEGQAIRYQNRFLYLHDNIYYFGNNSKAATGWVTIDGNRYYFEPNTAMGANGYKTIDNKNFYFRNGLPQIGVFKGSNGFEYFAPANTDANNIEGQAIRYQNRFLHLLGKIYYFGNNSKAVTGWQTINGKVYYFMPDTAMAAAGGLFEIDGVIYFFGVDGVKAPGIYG
Experiment: cell-based or functional assay

In order of falling “TcdA IC50, TcdA-induced Vero cell cytotoxicity (WST-1)” value:
1. B1  ~70 nM
2. B2  ~12 nM
3. B3  ~12 nM

In order of falling “maximal TcdA inhibition level” value:
1. B2  ~70%
2. B3  ~70%
3. B1  ~60%

In order of falling “fold increase in neutralization potency relative to parent A26.8 VHH” value:
1. B2  6 fold
2. B3  6 fold

Biological target: T1, Clostridium difficile toxin A (TcdA)
Experiment: SPR (Biacore 3000), VHH over immobilized TcdA, 1:1 fit
Method: (§1) Before surface plasmon resonance (SPR) binding experiments, IMAC-purified VHHs were subjected to de-salting and further purification by size-exclusion chromatography (SEC). Approximately 500 μg of each VHH was injected over a Superdex 75 Increase 10/300 GL SEC column (GE Healthcare) in Biacore running buffer HBS-EP (10 mM HEPES pH 7.4, 150 mM NaCl, 3 mM EDTA, 0.005% (v/v) P20; GE Healthcare) under the control of an ÄKTA FPLC at 0.8 mL/min. Monomeric VHH fractions were collected and analyzed for binding to TcdA using a Biacore 3000 SPR instrument (GE Healthcare). Approximately 4,500 resonance units (RUs) of TcdA (List Biological Laboratories, Campbell, Calif.) were immobilized on a CM5 sensor chip (GE Healthcare) using the conditions previously described (Hussack et al, 2011). HBS-EP running buffer was used for all binding studies and regeneration of TcdA surfaces. Next, various dilution ranges of VHHs (as low as 10 nM-0.5 nM to as high as 5 μM-50 nM) were injected over immobilized TcdA at a flow rate of 40 μL/min with 120 s contact time and 600 s dissociation. Reference-subtracted sensorgrams were analyzed with BIAevaluation software (GE Healthcare) and fit to a 1:1 binding model. In cases where rapid kₒₙ and koff rate constants were observed, equilibrium dissociation constants (KDs) were determined by steady-state analysis.

In order of falling Kd:
1. B12  165 nM
2. B9  44 nM
3. B5  33.6 nM
4. B8  21.3 nM
5. B6  19 nM
6. B4  16.3 nM
7. B11  8.29 nM
8. B7  7.63 nM
9. B10  6.16 nM
10. B13  5.32 nM
11. B2  2.32 nM
12. B3  1.98 nM

In order of rising koff:
1. B13  0.014 s⁻¹
2. B2  0.0193 s⁻¹
3. B7  0.0198 s⁻¹
4. B11  0.0199 s⁻¹
5. B3  0.0241 s⁻¹
6. B6  0.0259 s⁻¹
7. B10  0.0269 s⁻¹
8. B4  0.0361 s⁻¹
9. B8  0.0402 s⁻¹
10. B12  0.0548 s⁻¹
11. B5  0.0699 s⁻¹
12. B9  0.0711 s⁻¹

In order of falling kon:
1. B3  1.23e+07 M⁻¹ s⁻¹
2. B2  8.33e+06 M⁻¹ s⁻¹
3. B10  4.75e+06 M⁻¹ s⁻¹
4. B7  2.7e+06 M⁻¹ s⁻¹
5. B13  2.7e+06 M⁻¹ s⁻¹
6. B11  2.47e+06 M⁻¹ s⁻¹
7. B4  2.39e+06 M⁻¹ s⁻¹
8. B5  2.08e+06 M⁻¹ s⁻¹
9. B8  1.92e+06 M⁻¹ s⁻¹
10. B9  1.62e+06 M⁻¹ s⁻¹
11. B6  1.39e+06 M⁻¹ s⁻¹
12. B12  330000 M⁻¹ s⁻¹

Biological target: T1, Clostridium difficile toxin A (TcdA)
Experiment: SPR (Biacore 3000), VHH over immobilized TcdA; ratio of parent KD to mutant KD
Method: as §1

In order of falling “KD^WT/KD” value:
1. B3  9.4
2. B2  8.1
3. B13  3.5
4. B10  3
5. B7  2.5
6. B11  2.3
7. B4  1.1
8. B6  1
9. B8  0.9
10. B5  0.6
11. B9  0.4
12. B12  0.1
13. B14  0.08
14. B18  0.03
15. B16  0.01
16. B17  0.008
17. B15  0.004

Biological target: T1, Clostridium difficile toxin A (TcdA)
Experiment: SPR (Biacore 3000), VHH over immobilized TcdA; binding free energy difference relative to parent VHH
Method: as §1

In order of falling ΔΔG:
1. B15  3.28 kcal/mol
2. B17  2.82 kcal/mol
3. B16  2.55 kcal/mol
4. B18  2.04 kcal/mol
5. B14  1.45 kcal/mol
6. B12  1.27 kcal/mol
7. B9  0.5 kcal/mol
8. B5  0.34 kcal/mol
9. B8  0.08 kcal/mol
10. B6  0.01 kcal/mol
11. B4  -0.08 kcal/mol
12. B11  -0.48 kcal/mol
13. B7  -0.52 kcal/mol
14. B10  -0.65 kcal/mol
15. B13  -0.73 kcal/mol
16. B2  -1.22 kcal/mol
17. B3  -1.31 kcal/mol

Biological target: T1, Clostridium difficile toxin A (TcdA)
Experiment: SPR on immobilized TcdA
Method: as §1
The location of these mutations relative to the antigen epitope is illustrated in FIG. 2C.

Going from B14 to B5, the “fold decrease in affinity relative to parent A26.8 VHH” value falls from roughly 10 fold to no more than 2.5 fold.

First: B6
Second: B15
The “fold decrease in affinity relative to parent A26.8 VHH” value of the first is lower: no more than 2.5 fold for the first, 30 to 300 fold for the second.

B8 and B9 cannot be ordered by “fold decrease in affinity relative to parent A26.8 VHH” value: no more than 2.5 fold for the first, no more than 2.5 fold for the second.

First: B12
Second: B18
The “fold decrease in affinity relative to parent A26.8 VHH” value of the first is lower: roughly 10 fold for the first, 30 to 300 fold for the second.

For B2, the “fold affinity improvement relative to parent A26.8 VHH” value was 8 fold.

In the case of B2, the “fold increase in kon relative to parent A26.8 VHH” value is reported as greater than 6 fold.

B7 and B10 cannot be ordered by “fold improvement in KD relative to parent A26.8 VHH” value: greater than 2 fold for the first, greater than 2 fold for the second.

B11 and B13 cannot be ordered by “fold improvement in KD relative to parent A26.8 VHH” value: greater than 2 fold for the first, greater than 2 fold for the second.

B7 and B10 cannot be ordered by “fold improvement in binding affinity relative to parent A26.8 VHH” value: greater than 2 fold for the first, roughly 3 fold for the second.

B11 and B13 cannot be ordered by “fold improvement in binding affinity relative to parent A26.8 VHH” value: greater than 2 fold for the first, roughly 3 fold for the second.

For B3, the “fold change in kon relative to original A26.8” value was roughly 7 fold.

With B3 the “fold improvement of KD relative to original A26.8” value was 10 fold.

In the case of B10, the “fold improvement in kon relative to parent” value is reported as roughly 2.5 fold.

With B13 the “fold improvement in koff relative to parent” value was roughly 2.5 fold.

Biological target: T1, Clostridium difficile toxin A (TcdA)
Experiment: SPR (Biacore 3000), VHH over immobilized TcdA, steady-state analysis
Method: as §1

In order of rising Kd:
1. B14  224 nM
2. B18  612 nM
3. B16  1480 nM
4. B17  2320 nM
5. B15  5130 nM
